In paper PMC3154745 (Chembiochem : a European journal of chemical biology, 2011):
Numbering of substitutions follows the chain as printed. Names may count otherwise.

B1: W200A: HP1a-CSD point mutant W200A (protein)
chain: EQDTIPVSGSTGFDRGLEAEKILGASDNNGRLTFLIQFKGVDQAEMVPSSVANEKIPRMVIHFYEERLSAYSDNED
modifications: left off: His6 (…), N-terminal, kept | two lysines for solubility, C-terminal, kept
B2: S199ES202E: HP1a-CSD phosphorylation mimic, S199E and S202E double mutant (protein)
chain: B1 chain with S69E, A70W, S72E
modifications: left off: His6 (…), N-terminal, kept | two lysines for solubility, C-terminal, kept

System: HP1a (homodimerization)
Assay: Equilibrium analytical ultracentrifugation, HP1a self-association
Conditions: equilibrium AUC

Molecule	weakening of the dimerization (dissociation) constant relative to wild-type CSD
B1	two-fold weakening
B2	6 fold
